This is an account of results in US8394929B2, “Nogo receptor-mediated blockade of axonal growth” (Yale University, priority 2000, dated 2013).

The subject of assay [1] is TPA-induced growth cone collapse. In words: TPA-induced growth cone collapse in E12 chick DRG explants. The assay is classed as cell-based. The procedure:
(§1) For further testing, a synthetic peptide containing amino acid residues #1055-1094 of hNgR, acetylated at the […] was used [hereinafter “Peptide 140”]. […] Antagonist of Nogo-66 inhibitory activity may act by competing for, and thereby blocking NgR binding sites. To determine the antagonistic activity of Peptide 140, the above synthetic form of the peptide was added to E12 chick DRG explant cultures approximately 10 min before application of various concentrations of GST-NogoA (residues #1055-1120), TPA or Sema3A. 30 min later, cultures were fixed and growth cone collapse was assessed following staining with rhodamine-phalloidin.

For assay [2], the system named is Sema3A-induced growth cone collapse. As to the kind of experiment: Sema3A-induced growth cone collapse in chick DRG cultures. The assay is classed as cell-based.
Excerpt: The Nogo-66 receptor protein is necessary for Nogo-66 action and not simply a binding site with a function unrelated to inhibition of axonal outgrowth. A first prediction is that phosphoinositol specific-Phospholipase C (PI-PLC) treatment to remove glycophosphatidylinositol (GPI)-linked proteins from the neuronal surface will render neurons insensitive to Nogo-66. This prediction holds true for chick E13 dorsal root ganglion neurons; PI-PLC treatment abolishes both AP-Nogo binding and GST-Nogo-66-induced growth cone collapse (FIG. 10a-c). As a control, Sema3A responses in the parallel cultures are not altered by PI-PLC treatment.
as §1

Assay [3] addresses T1, NgRΔCT (Mus musculus, UniProt Q99PI8).
T1 construct: encodes residues 26 to 305 and 443 to473 of mNgR; vector secretion signal (pSecTag2) (N); 6xHis (C); expressed in transfected cells; host or cells: COS-7
T1 sequence (Q99PI8 with tags, fused parts or gaps): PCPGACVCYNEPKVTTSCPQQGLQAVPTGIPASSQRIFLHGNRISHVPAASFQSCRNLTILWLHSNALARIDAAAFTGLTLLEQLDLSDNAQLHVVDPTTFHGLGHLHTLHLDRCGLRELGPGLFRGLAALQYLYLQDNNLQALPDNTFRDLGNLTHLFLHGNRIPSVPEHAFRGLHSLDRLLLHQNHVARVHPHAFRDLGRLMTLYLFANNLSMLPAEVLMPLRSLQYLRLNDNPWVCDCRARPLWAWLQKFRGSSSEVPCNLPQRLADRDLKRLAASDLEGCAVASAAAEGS
In words: AP-hNogo-A (1055-1120) binding to COS-7 cells transfected with NgRΔCT. The text has this: The NgRΔCT contruct encodes residues 26 to 305 and 443 to473 of mNgR, thereby including the LRR and GPI regions of mNgR. Primers MycNgR ([…]) and 2NgRt313 ([…]) were used to amplify a sequence from the wtNgR-pSecTag2Hygro plasmid. Primers TM/GPI5 (5′-[…]-3′) and NgR3X (above) were used to amplify a sequence from the wtNgR-pSecTag2Hygro plasmid. The amplified sequences were ligated together at the NotI site and then ligated into the BamHI/XhoI sites of pSecTag2.
To determine whether mNgR or mNgR deletion mutants bound to hNogo-A (1055-1120), wtNgR or mNgR deletion mutants were transfected into COS-7 cells. Forty-eight hours after the transfection, the transfected COS-7 cells were washed with hanks balanced salt solution containing 20 mM sodium HEPES, pH 7.05, and 1 mg/ml bovine serum albumin (BSA) [hereinafter “HBH”]. Cells were then incubated for 2 hours at 23° C. with a conditioned medium enriched with purified AP-hNogo-A (1055-1120) diluted in HBH. AP-fusion protein was detected as previously described for AP-Sema3A (Takahashi et al., Nature Neurosci. 1:487-493, 1998).

Assay [4] relates to PlexinA1 (PlexA1). As to the kind of experiment: Growth cone collapse in E7 retinal ganglion cells infected with control HSV PlexinA1. The assay is classed as cell-based. The text has this: Both dorsal root ganglion and retinal neurons from E7 chick embryos were examined. The Nogo responses in the dorsal root ganglion neurons from this developmental stage are weak but slight responses can be detected in some cultures (data not shown).
Growth cone collapse in response to GST-hNogo-A (1055-1120) was investigated in infected RGC cultures. Retinal explants infected with recombinant viral preparations of PlexinA1 (PlexA1), wild-type NgR (wtNgR), NgRL1 chimeric receptor in which the GPI domain has been replaced by the transmembrane region and cytoplasmic tail from the mouse adhesion protein L1 (NgRL1), or NgR carboxy terminal deletion mutant (NgRΔCT) for 12 hr. Following infection, the cells were treated for 30 min with 0, 50, 250, or 500 nM GST-hNogo-A (1055-1120) (GrandPre et al., Nature 403: 439-444, 2000), fixed with 4% paraformaldehyde with 0.1 M PO4 and 20% sucrose, and stained with phalloidin. […] Cells infected with NgRΔCT were insensitive to GST-hNogo-A (1055-1120). The CT region of NgR is therefore required for effective NgR inhibitory signaling.

As to “Peptide 140: synthetic peptide of amino acids #1055-1094 of the human NogoA protein, acetylated and amidated at the termini (Ac-RIYKGVIQAIQKSDEGHPFRAYLESEVAISEELVQKYSNS-NH2; UniProt Q9NQC3 1055-1094, looked up, fragment)”, the “effect on TPA-induced growth cone collapse (in words)” value in assay [1] is recorded as “no significant reduction in collapse”. Besides, in assay [2], the “effect on Sema3A-induced growth cone collapse (in words)” value is “no significant reduction in collapse”.

B1: AP-Nogo: fusion protein of His6 tag, placental alkaline phosphatase (AP) and the 66 amino acid active domain of Nogo (protein)
chain: HHHHHHIIPVEEENPDFWNREAAEALGAAKKLQPAQTAAKNLIIFLGDGMGVSTVTAARILKGQKKDKLGPEIPLAMDRFPYVALSKTYNVDKHVPDSGATATAYLCGVKGNFQTIGLSAAARFNQCNTTRGNEVISVMNRAKKAGKSVGVVTTTRVQHASPAGTYAHTVNRNWYSDADVPASARQEGCQDIATQLISNMDIDVILGGGRKYMFRMGTPDPEYPDDYSQGGTRLDGKNLVQEWLAKRQGARYVWNRTELMQASLDPSVTHLMGLFEPGDMKYEIHRDSTLDPSLMEMTEAALRLLSRNPRGFFLFVEGGRIDHGHHESRAYRALTETIMFDDAIERAGQLTSEEDTLSLVTADHSHVFSFGGYPLRGSSIFGLAPGKARDRKAYTVLLYGNGPGYVLKDGARPDVTESESGSPEYRQQSAVPLDEETHAGEDVAVFARGPQAHLVHGVQEQTFIAHVMAFAACLEPYTACDLAPPAGTTDAAHPGRIYKGVIQAIQKSDEGHPFRAYLESEVAISEELVQKYSNSALGHVNCTIKELRRLFLVDDLVDSLK
For the molecule B1, in assay [3], the “binding (in words)” value was “bound”.

B2: GST-Nogo: GST fusion protein of the 66 amino acid lumenal-extracellular fragment of Nogo-A, expressed in E. coli (protein)
chain: RIYKGVIQAIQKSDEGHPFRAYLESEVAISEELVQKYSNSALGHVNCTIKELRRLFLVDDLVDSLK
modifications: also: GST fusion protein
notes: GST fusion protein of the 66 amino acid lumenal-extracellular fragment of Nogo-A, expressed in E. coli
For B2, the “growth cone collapse response (in words)” value is “did not respond” in assay [4] (listed as GST-hNogo-A (1055-1120)) and “does not alter Nogo responses” in assay [4] (listed as Nogo-66).
